Tests used:
Sea3 = target: T1, Sea3 (S. cerevisiae (endogenous in yeast …, UniProt Q03897 1-1148)); test: co-IP; Sea4-TAP captured from cleared yeast lysate on IgG-coupled Dynabeads, washed, eluted with TEV protease, Coomassie-stained SDS-PAGE; 4 °C, 20 mM HEPES-NaOH pH 7.4, 300 mM NaCl, 5 mM CHAPS, 10% glycerol; wild-type, ΔNpr3, Npr2^R84A and Sea1^R943A strains; conditions: partners not purified
T1 construct: Sea3, S. cerevisiae, endogenous subunit of the SEAC; Sea3^SIP (Sea3^Nter) lies in the wing, Sea3^SAP (Sea3^Cter) in the core; Native protein of the purified complex; two copies in the SEAC; source: endogenous, yeast cells expressing Sea4-TAP; in lysate and co-purified with Sea4-TAP (IgG Dynabeads, TEV elution)
T1 sequence (looked up): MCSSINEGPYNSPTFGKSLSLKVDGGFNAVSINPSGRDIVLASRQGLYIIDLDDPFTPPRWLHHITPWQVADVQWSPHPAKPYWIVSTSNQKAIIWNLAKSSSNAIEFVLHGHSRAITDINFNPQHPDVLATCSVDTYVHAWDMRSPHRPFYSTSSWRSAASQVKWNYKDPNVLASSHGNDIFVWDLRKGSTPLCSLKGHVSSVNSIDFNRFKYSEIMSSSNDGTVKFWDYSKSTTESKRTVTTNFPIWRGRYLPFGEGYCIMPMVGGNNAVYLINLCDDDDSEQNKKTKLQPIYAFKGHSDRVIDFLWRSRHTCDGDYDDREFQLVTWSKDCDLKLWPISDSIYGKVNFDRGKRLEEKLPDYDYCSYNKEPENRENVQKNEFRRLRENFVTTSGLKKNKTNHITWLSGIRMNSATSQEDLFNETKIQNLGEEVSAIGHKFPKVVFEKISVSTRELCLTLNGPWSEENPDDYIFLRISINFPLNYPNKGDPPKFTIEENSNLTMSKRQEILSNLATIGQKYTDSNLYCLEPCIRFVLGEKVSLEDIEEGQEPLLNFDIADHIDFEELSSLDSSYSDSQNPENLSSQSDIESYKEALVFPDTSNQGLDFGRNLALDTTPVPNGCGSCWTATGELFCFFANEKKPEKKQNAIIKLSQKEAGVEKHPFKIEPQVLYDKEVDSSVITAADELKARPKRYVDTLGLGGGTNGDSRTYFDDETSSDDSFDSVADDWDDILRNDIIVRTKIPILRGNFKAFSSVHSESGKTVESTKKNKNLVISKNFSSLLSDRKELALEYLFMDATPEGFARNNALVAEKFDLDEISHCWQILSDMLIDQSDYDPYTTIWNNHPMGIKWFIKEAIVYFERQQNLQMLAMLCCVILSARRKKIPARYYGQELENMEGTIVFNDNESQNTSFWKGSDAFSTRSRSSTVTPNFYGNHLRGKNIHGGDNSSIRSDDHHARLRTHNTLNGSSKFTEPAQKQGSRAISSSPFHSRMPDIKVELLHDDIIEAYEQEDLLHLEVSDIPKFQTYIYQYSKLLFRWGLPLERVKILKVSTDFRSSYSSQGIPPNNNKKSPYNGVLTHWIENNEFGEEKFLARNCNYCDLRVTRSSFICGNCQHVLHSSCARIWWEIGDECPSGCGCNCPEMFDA

Sea2 = target: T2, Sea2 (S. cerevisiae (endogenous in yeast …, UniProt Q08281 1-1341)); test: as above; conditions: partners not purified
T2 construct: Sea2, S. cerevisiae, endogenous subunit of the SEAC (SEACAT, core); Native protein of the purified complex; two copies in the SEAC; source: endogenous, yeast cells expressing Sea4-TAP; in lysate and co-purified with Sea4-TAP (IgG Dynabeads, TEV elution)
T2 sequence (looked up): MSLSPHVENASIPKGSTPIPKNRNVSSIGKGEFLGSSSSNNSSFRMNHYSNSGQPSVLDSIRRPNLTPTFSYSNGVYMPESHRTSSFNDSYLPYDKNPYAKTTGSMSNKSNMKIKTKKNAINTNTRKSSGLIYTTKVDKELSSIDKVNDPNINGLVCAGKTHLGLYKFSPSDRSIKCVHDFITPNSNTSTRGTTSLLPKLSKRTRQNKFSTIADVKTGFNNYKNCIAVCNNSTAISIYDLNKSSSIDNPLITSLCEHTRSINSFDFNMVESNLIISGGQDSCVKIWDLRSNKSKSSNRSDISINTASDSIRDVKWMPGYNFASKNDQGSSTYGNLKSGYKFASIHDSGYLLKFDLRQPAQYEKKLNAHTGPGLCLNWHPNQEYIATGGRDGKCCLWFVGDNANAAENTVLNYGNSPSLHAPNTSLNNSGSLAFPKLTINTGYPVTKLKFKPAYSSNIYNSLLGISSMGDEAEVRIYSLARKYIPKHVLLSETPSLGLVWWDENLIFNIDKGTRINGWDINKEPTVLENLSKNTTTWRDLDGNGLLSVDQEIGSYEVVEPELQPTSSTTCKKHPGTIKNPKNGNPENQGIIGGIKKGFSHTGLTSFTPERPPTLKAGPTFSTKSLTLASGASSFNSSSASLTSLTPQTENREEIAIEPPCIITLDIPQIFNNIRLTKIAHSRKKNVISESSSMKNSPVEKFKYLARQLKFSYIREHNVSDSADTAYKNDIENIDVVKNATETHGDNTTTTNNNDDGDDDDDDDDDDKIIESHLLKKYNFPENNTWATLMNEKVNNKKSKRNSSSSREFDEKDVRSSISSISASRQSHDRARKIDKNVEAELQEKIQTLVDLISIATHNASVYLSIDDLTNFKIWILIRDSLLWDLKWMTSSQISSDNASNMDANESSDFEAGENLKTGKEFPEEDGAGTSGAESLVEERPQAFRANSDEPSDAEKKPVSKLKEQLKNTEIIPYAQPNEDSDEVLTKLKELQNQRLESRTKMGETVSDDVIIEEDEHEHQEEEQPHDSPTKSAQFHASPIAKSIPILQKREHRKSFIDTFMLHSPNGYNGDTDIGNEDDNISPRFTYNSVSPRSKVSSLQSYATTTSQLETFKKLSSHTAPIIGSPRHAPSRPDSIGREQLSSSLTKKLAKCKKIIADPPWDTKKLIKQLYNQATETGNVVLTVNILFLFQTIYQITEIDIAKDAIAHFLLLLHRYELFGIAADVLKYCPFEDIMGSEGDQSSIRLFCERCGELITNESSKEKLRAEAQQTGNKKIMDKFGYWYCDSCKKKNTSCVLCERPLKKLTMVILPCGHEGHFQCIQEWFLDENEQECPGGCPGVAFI

B1: Sea4-TAP (natural protein, UniProt P38164 1-1038, looked up)
chain: MGLIKKVTHWSYDNLIDYLSVNPTRDEVTHYKVDPENESDESIIKLHTVKDFGSITCLDYSESEIGMIGVGEKNGYLRIFNISGQNSSSPASHAPVGLNANNETSMTNASGGKAAQAENIVGSVSNLKDTQGYPVSETNYDIRVRAKKQRCINSLGINTNGLIAMGLDRNKHDSSLQIWDMNYHDDSHETINPMFSYCTNESIVSLKFLNDTSVLAASTKFLKEIDVRSPNPIYQHPTRLTYDIKLNPFNDWQFSTYGDDGTLAIWDRRKLSDQASLGDLNVASPLLTFEKLVGSGAASRKYMNSCFRWSCVRNNEFATLHRGDTIKRWRLGYYCDSNRDIAADDDNEMNIENLFVSSVHDTNTMYDRVATFDYIPRSNNGTSLICMRQSGTIYRMPISEVCSKAILNNRNSLLLSNFENTEIDEIRVNNEHEKSNLENVKTILKNLSFEDLDVSEDYFPSGHDEPNNEIEYSELSEEENEGSNDVLDSKRGFELFWKPEKLLEKDISVIMRTRASLGYGLDPMNTVEMIDSSKNLQNNAYIRNTWRWIAIAKASVDDGTMVSGDLDLGYEGVIGIWNGINGISNQDRYRQETILSDKQLNKEMEKIIKLRRKNRDRNSPIANAAGSPKYVQRRLCLIISGWDLSRSDYEDKYNIIMKNGHYEKAAAWAVFFGDIPKAVEILGSAKKERLRLIATAIAGYLAYKDLPGNNAWRQQCRKMSSELDDPYLRVIFAFIADNDWWDILYEPAISLRERLGVALRFLNDTDLTTFLDRTSSTVIENGELEGLILTGITPNGIDLLQSYVNKTSDVQSAALISIFGSPRYFRDQRVDEWIQTYRDMLKSWELFSMRARFDVLRSKLSRTKTGVLTADIKPRQIYIQCQNCKQNINTPRTSSPSSAVSTSAGNYKNGEAYRRNNADYKKFNTGSSEAQAADEKPRHKYCCPHCGSSFPRCAICLMPLGTSNLPFVINGTQSRDPMQTEDSQDGANRELVSRKLKLNEWFSFCLSCNHGMHAGHAEEWFDRHNVCPTPGCTCQCNK
notes: Sea4, S. cerevisiae, endogenous subunit of the SEAC (SEACAT, core), TAP-tagged; Captured by the TAP tag on IgG beads; the complex was released with TEV protease before SDS-PAGE and cryo-EM; Written 'Sea4-TAP'; Four copies in the SEAC; source: endogenous, yeast cells expressing Sea4-TAP; in lysate, purified on IgG-coupled Dynabeads and eluted with TEV protease
B1: binds (Sea3); binds (Sea2).

From publication PMC9646525, “Cryo-EM structure of the SEA complex” (Nature, 2022)
